PMC5291321 (Science (New York, N.Y.), 2016)
Like-named read-outs stand apart in the source and are kept apart here. Values belong to the binder of their own block, whether it stands above or below them.

Experiments:
crystal structure [1] = molecular target: the molecule itself; test: crystal structure
crystal structure [2] = molecular target: the molecule itself; test: crystal structure; remark: listed apart in the source
[3] = molecular target: T1, full-length GluD2 (GluD2FL) (human, UniProt O43424 24-1007); test: SPR
T1 sequence (looked up): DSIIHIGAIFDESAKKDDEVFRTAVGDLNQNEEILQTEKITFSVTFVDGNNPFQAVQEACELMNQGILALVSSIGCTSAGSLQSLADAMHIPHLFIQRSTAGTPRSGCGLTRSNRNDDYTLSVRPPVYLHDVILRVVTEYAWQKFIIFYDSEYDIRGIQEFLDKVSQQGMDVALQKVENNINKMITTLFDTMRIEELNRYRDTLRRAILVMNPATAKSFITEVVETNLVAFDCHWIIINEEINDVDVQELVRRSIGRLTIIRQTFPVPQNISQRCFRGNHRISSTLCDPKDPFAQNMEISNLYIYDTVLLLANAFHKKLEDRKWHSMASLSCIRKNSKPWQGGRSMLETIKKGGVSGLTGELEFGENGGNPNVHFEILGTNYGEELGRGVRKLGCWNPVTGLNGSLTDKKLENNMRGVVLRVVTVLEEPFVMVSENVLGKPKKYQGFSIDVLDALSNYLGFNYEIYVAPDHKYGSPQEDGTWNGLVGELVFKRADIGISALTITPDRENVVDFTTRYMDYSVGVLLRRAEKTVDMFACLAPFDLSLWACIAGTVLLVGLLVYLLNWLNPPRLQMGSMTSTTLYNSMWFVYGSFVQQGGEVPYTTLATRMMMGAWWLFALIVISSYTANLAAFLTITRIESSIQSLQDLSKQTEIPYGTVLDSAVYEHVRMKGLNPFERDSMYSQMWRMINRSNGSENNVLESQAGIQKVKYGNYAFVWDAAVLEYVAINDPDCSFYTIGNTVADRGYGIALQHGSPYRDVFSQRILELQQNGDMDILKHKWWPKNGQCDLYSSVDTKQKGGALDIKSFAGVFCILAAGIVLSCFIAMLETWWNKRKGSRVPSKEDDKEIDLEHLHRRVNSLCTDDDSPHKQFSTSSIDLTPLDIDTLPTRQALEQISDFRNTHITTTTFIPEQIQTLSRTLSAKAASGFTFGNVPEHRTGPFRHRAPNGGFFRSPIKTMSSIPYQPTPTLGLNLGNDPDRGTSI

B1: GluD2 amino-terminal domain (GluD2ATD) (domain or fragment, human)
chain: DSIIHIGAIFDESAKKDDEVFRTAVGDLNQNEEILQTEKITFSVTFVDGNNPFQAVQEACELMNQGILALVSSIGCTSAGSLQSLADAMHIPHLFIQRSTAGTPRSGCGLTRSNRNDDYTLSVRPPVYLHDVILRVVTEYAWQKFIIFYDSEYDIRGIQEFLDKVSQQGMDVALQKVENNINKMITTLFDTMRIEELNRYRDTLRRAILVMNPATAKSFITEVVETNLVAFDCHWIIINEEINDVDVQELVRRSIGRLTIIRQTFPVPQNISQRCFRGNHRISSTLCDPKDPFAQNMEISNLYIYDTVLLLANAFHKKLEDRKWHSMASLSCIRKNSKPWQGGRSMLETIKKGGVSGLTGELEFGENGGNPNVHFEILGTNYGEELGRGVRKLGCWNPVTGLNGSLTDKKLENNMRG
stoichiometry N (crystal structure [1]): 2 | stoichiometry N (crystal structure [2]): 4

Kd [3]: ~0.125 µM
B2: full-length Cbln1 (Cbln1FL) (natural protein, human, UniProt P23435 22-193, looked up)
chain: QNETEPIVLEGKCLVVCDSNPTSDPTGTALGISVRSGSAKVAFSAIRSTNHEPSEMSNRTMIIYFDQVLVNIGNNFDSERSTFIAPRKGIYSFNFHVVKVYNRQTIQVSLMLNGWPVISAFAGDQDVTREAASNGVLIQMEKGDRAYLKLERGNLMGGWKYSTFSGFLVFPL

B3: mouse GluD1 amino-terminal domain (GluD1ATD) (domain or fragment)
chain: DSIIHIGAIFEENAAKDDRVFQLAVSDLSLNDDILQSEKITYSIKVIEANNPFQAVQEACDLMTQGILALVTSTGCASANALQSLTDAMHIPHLFVQRNPGGSPRTACHLNPSPDGEAYTLASRPPVRLNDVMLRLVTELRWQKFVMFYDSEYDIRGLQSFLDQASRLGLDVSLQKVDKNISHVFTSLFTTMKTEELNRYRDTLRRAILLLSPQGAHSFINEAVETNLASKDSHWVFVNEEISDPEILDLVHSALGRMTVVRQIFPSAKDNQKCMRNNHRISSLLCDPQEGYLQMLQISNLYLYDSVLMLANAFHRKLEDRKWHSMASLNCIRKSTKPWNGGRSMLDTIKKGHITGLTGVMEFREDSSNPYVQFEILGTTYSETFGKDMRKLATWDSEKGLNGSLQERPMGSRLQG
stoichiometry N (crystal structure [1]): 2
